Measured values reported in the nanobody polyreactivity screen of Harvey et al. (2022).

Experiment: yeast display, Sf9 membrane polyspecificity reagent, FACS + sequencing; frameworks hold sequencing errors
How it was run: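 Synthetic nanobody libraries on Saccharomyces cerevisiae BJ5465 were galactose-induced for 36–48 hours, stained 1 hour at 4 °C with 10% biotinylated, detergent-solubilized Sf9 membrane reagent and enriched on streptavidin microbeads. FACS then separated cells into low and high (top ~1%) gates by anti-HA (expression) and streptavidin (reagent binding) fluorescence. Genes were colony-PCR amplified, MiSeq 2 × 250 sequenced and CDR-length filtered. A clone's polyreactivity label is that of its gate of origin.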

Row | Sequence | polyreactivity (PSR sort gate)
1 | QVQLVESGGGLVQAGGSLRLSCAASASIFYRNAMGWYRQAPGKERELVAGITTRGGSTYYADSVKGRFTISRDNAKNTVYLQMNSLNPEDTAVYYCNRRFPIYGSRFGYYYWGQGTQVTVSS | high polyreactivity
2 | QVQLVESGGGLVQAGGSLRLSCAASASINSNYVMGWNRQAPGKERELVAAITRRGGRTYYADSVKGRFTISRDNAKNTVYLQMNSLKPEDTAVYYCAAERYPEAGSPYGTAEMDYWGQGTQVPVSS | low polyreactivity
3 | QVQLVESGGGLVQAGGSLRLSCAASASTFTINAMGWYRQAPGKERELVAAISRSGGSTFYADSVKGRFTISRDNAKKTVYLQMNSLKPEDTAVYYCAARGVNRQGFNYWGQGTQVTVSS | high polyreactivity
4 | QVQLVESGGGLVQAGGSLRLSCAASASTLNGNAKAWYRQAPGKDRELVAAITTSGGSTYYADSVKGRFTISRDNAKNTDSLQMHSQNPEDTAVYYCNKLIGRRYGWANGYDYWGQGTQVTVSS | low polyreactivity
5 | QVQLVESGGGLVQAGGSLRLSCAASEGWYRQAPGKERELVAAISYIGGSTYYADSVKGRFTISRDNAKNTVYLQMNSLKPEDTAVYYCAKGYPDPQWGGVLAYDYWGQGTQVTVSS | low polyreactivity
6 | QVQLVESGGGLVQAGGSLRLSCAASGAIFYYYAMGWYRQAPGKERELVATITASGGSTFYADSVKGRFTISRDNAKNTVYLQMNSLKPEDTAVYYCAATVYYTYWGQGTQVTVSS | low polyreactivity
7 | QVQLVESGGGLVQAGGSLRLSCAASGATFERNAMGWYRQAPGKERELVAAITGSGGRTYYADSVKGRFTISRDNAKNTVYLQMNSLKPEDTAVYYCAKDTYYPSSRYNRYYYWGQGTQVTVSS | high polyreactivity
8 | QVQLVESGGGLVQAGGSLRLSCAASGATFSVNAMGWYRQAPGKEREWVAAISSTGSTKYADSVKGRFTISRDNAKNPVYLQMNSLKPEDTAVYCAASNADYEYYPFSVWYFSPYDYWGHGTQVTVSS | low polyreactivity
9 | QVQLVESGGGLVQAGGSLRLSCAASGCTFSIYAMGWYRQAPGKERELVAAFTGTVGSTYYADSVKVRFTISRDNAKNTVYLQMKSLKPEDTAVYYCNVDWFWNWRGYYWGQGTQVTVSS | low polyreactivity
10 | QVQLVESGGGLVQAGGSLRLSCAASGDIFDAYAMGWYRQAPGKERELVAAISRSGGSTYYADSVKGRFTISRDNAKNTVYLQMNSLKPEDTAVYYCATRFSRRYVRYDYWGHGTQVTVSS | high polyreactivity
11 | QVQLVESGGGLVQAGGSLRLSCAASGFFFDEYAMGWYRLAPGKERELVAAIDVGGSTYYADSVKGRFTISRDNAKNTVYLQMNSLKPEDTAVYYCARDAFSVSDFSYASIEYDYWGQGTQVTVSS | low polyreactivity
12 | QVQLVESGGGLVQAGGSLRLSCAASGFICTGYTMGWYRQAPGKERELVARISSGDSTKYADSVKGRFTISRDNAKNTVYLQMNSLKPEDTAVYYCNVRDRRSIRSRSDYWGQGTQVTVSS | high polyreactivity
13 | QVQLVESGGGLVQAGGSLRLSCAASGFICYFYAMGWYRQAPGKERELVAVITQSGGSTYYADSVKGRFTISRDNAKNTVYLQMNSLKPEDTAVYYCNADTVRYYPFFSVRYYYWGQGTQVTVSS | low polyreactivity
14 | QVQLVESGGGLVQAGGSLRLSCAASGFIFADYDMGWYRQAPGKERELVAAISWSGGTTYYADSVKGRFTISRDNAKNTVYLQMNSLKPEDTAVYYCAAYWWAVYSVVTGARYDYWGQGTQVTVSS | high polyreactivity
15 | QVQLVESGGGLVQAGGSLRLSCAASGFIFAEYAMGWYRQAPWKERELVAAITRSGGRTYYADSVKGRFTISRDNAKNTVYLQMNSLKPEDTAVYYCAAGLGYPRLYYCGQGTQVTVSS | high polyreactivity
16 | QVQLVESGGGLVQAGGSLRLSCAASGFIFAFYDMGWYRQAPGKERELVAAISWGGSTYYADSVKGRFTISRDNAKNTVYLQMNSLKPQDTAVYYCAARLSRSYRYGYWGQGTQVTVSS | high polyreactivity
17 | QVQLVESGGGLVQAGGSLRLSCAASGFIFAGYALGWYRQAPGKERELVAAISSGGGSTYYADSVKGRFTISRDNAKNTGYLQMNSLKPEDTAVYYCAARRLYPPGYYYWGQGTQVTVSS | high polyreactivity
18 | QVQLVESGGGLVQAGGSLRLSCAASGFIFAIYAMGWYRQAPGKEMELVAAITSSGGSTYYADSVKGRFTISRDNAKNTVYLQMNSLKPEDTAVYYCNKLSWRKYLGYEYWGQGTHVTVSS | high polyreactivity
19 | QVQLVESGGGLVQAGGSLRLSCAASGFIFALYAMGWYRQAPGKERELVASISKSGARTYYADSVKGRFTISRDNAKNTVDLQMNSLKPEDPAVYYCAALYRTGGIQYAGYGYWGQGTQVTVSS | high polyreactivity
20 | QVQLVESGGGLVQAGGSLRLSCAASGFIFANYGMGWYRQAPGKERELVAAISSGGRTYYADSVKARFTISRDNAKNTVYFQMNSLQPEDTAVYYCAAVVRRYNAEDYWGQGTQVTVSS | high polyreactivity
21 | QVQLVESGGGLVQAGGSLRLSCAASGFIFAQNAMGWYRQAPGKERELVAAISGSGGRTYYADSVKGRFTISRDNAKNTVYLQMNSLKPEDTAVYYCAAQYFSGYWGQGTQVTVSS | high polyreactivity
22 | QVQLVESGGGLVQAGGSLRLSCAASGFIFASNAMGWYRPAPGKERELVAAISTNGGSTNYADSVKGRFTISRDNAKKTVYLQMNSLKPEDTAVYYCNTDFPTQYGTRIGDDYWGQGTQVTVSS | low polyreactivity

Row | Sequence | polyreactivity (PSR sort gate)
23 | QVQLVESGGGLVQAGGSLRLSCAASGFIFATNNMGWYRQAPGKERELVAASSTYYADSVKGRFTISRDNAKNTVYLQMNSLKPEDTAVYYCNALYRYLYRSGDYWGLGTQVTVSS | low polyreactivity
24 | QVQLVESGGGLVQAGGSLRLSCAASGFIFAVNAMGWYRPAPGKERELVAAISRSGGTTYYADSVKGRFTISRDNAKNTVYLQMNSLKPEDTAVYYCARSSGLRSWRSSDYWGQGTQVTVSS | high polyreactivity
25 | QVQLVESGGGLVQAGGSLRLSCAASGFIFAYNAMGWYRQAPGKEWELVAAISWSGGSTYYADSVKGRFTISRDNAKNTVYLQMNSLKPEDTAVYYCNKYLRYPFKRYGYWGQGTQVTVSS | high polyreactivity
26 | QVQLVESGGGLVQAGGSLRLSCAASGFIFAYYAMGRYRQAPGKEREFVAVINWSGGITYYADSVKGRFTISRDNAKNTVYLQMNSLKPEDTAVYYCAADELAGYDYWGQGTQVTVSS | low polyreactivity
27 | QVQLVESGGGLVQAGGSLRLSCAASGFIFAYYAMGRYRQAPGKERELVAAITIDGSTYYADSVKGRFTIHDNAKNTVYLQMNRLKPEDTAVYYCNAGRWVYWQNNFGDYGYWGQGTQVTVSS | low polyreactivity
28 | QVQLVESGGGLVQAGGSLRLSCAASGFIFAYYAMGWYRQAPGKERELVAAISQSGTSTYYADSVKGRFTISRDNAKNTVYLQMNSLKPEDTAVYYCNVVPTGVHIFDYWGQGTQVTVSS | low polyreactivity
29 | QVQLVESGGGLVQAGGSLRLSCAASGFIFAYYAMGWYRQAPGKERELVAAISSRAGRTYYADSVKGRFTISRDNAKNTVYLQMNSLKPEYTAVYYWAAPTSSSGRYHRYYYWGQGTQVTVSS | high polyreactivity
30 | QVQLVESGGGLVQAGGSLRLSCAASGFIFAYYAMGWYRQAPGKERELVAAISSSGGSTYYADSVKGRFTISRDNAKNTVYLQMNSLKPEDTAVYFCNRRWVAPYFYSRYYSGQEEGYWGQGTQVTVSS | high polyreactivity
31 | QVQLVESGGGLVQAGGSLRLSCAASGFIFAYYAMGWYRQAPGKETELVAAITWSGGRTYYADSVKGRFTISRDNSKNTVYLQMNSLKPEDTAVYYCNAVRPSVDYGYWGQGTQVTVSS | high polyreactivity
32 | QVQLVESGGGLVQAGGSLRLSCAASGFIFAYYTMGWYRQAPGKEREFVASITYSGGNTYYADSVKGRFTISRDNAKNTVYLQMNSLKPEDTAVYYCATRDGYSISTTGLMDYWGQGTQVTVSS | low polyreactivity
33 | QVQLVESGGGLVQAGGSLRLSCAASGFIFDAYAMGWYRQAPGKERELVAAITRGNTYYADSVKGRFTISRDNAKNTVYLQMNSLKPEDTALYYCNADYNYANYPHDYWGQVTQVTVSS | low polyreactivity
34 | QVQLVESGGGLVQAGGSLRLSCAASGFIFDDNTMGWYRQAPGKERELVAAISYSAGSTYYADSVKGRFTISRDNAKNTVYLQMNSLKPEDTAVYYCAAQHYWVTSYLSSYDYWGQGTQVTVSS | low polyreactivity
35 | QVQLVESGGGLVQAGGSLRLSCAASGFIFDHNAMGWYRQAPGKERELVAAISGSGGSTYYADSVKGRFTISRDNAKNTVYLQMNSLKPEDTAVYYCNALKRTRLVRYYYWGQGTQVNVSS | high polyreactivity
36 | QVQLVESGGGLVQAGGSLRLSCAASGFIFDKNAMGWYRQAPGKERELVAAITSSGGSTYADSVKGRFTISRDNAKNTVYLQMNSLKPEDTAVYYCAARWYRPWYVTDSGDDYWGQGTQVTVSS | low polyreactivity
37 | QVQLVESGGGLVQAGGSLRLSCAASGFIFDLYAMGWYRQAPGKERELVAAISPSGGSTYYADSVKGRFTISRDNAKNTVYLQMNSLKPEDTAVYYCNTGIRWAISKEYDYWGQGTQVTVSS | high polyreactivity
38 | QVQLVESGGGLVQAGGSLRLSCAASGFIFDPYAMGWYRQAPGKERELVARITWSGGRTYYADSVKGRFTISRDNAKNTVYLQMNSLKPEDTAVYYCNADVYGFDYWGQGTQVTVSS | high polyreactivity
39 | QVQLVESGGGLVQAGGSLRLSCAASGFIFDQNAMGWYRQAPGKERELVAAISKRGGSTYYADSVKGRFTISRDTAKNTVYLQMNSLKPEDTAVYYCATRSWGPYYYGYNHWGQGTQVTVSS | high polyreactivity
40 | QVQLVESGGGLVQAGGSLRLSCAASGFIFDQYAMGWYRQAPGKERELVAAISSGGRTYYADSVKGRFTISRDNAKNTVYLQMNSLKPEDTAVYYCAAKSWTDSRVTGYWGQGTQVTVSS | high polyreactivity
41 | QVQLVESGGGLVQAGGSLRLSCAASGFIFDQYDMGWYRQAPGKERELVAAISDSGGSTYYADSVKGRFTISRDNAKNTVYLQMNSLKPEDTAVYYCAAGSYLAFGGLWFYYWGQGTQVTVSS | high polyreactivity
42 | QVQLVESGGGLVQAGGSLRLSCAASGFIFDSNPIGWYRQAPWKEREVVAAISSSGGSTYYADSVKGRFTISRDNAKNTVYLQMKSLKPEDTAVYYCGAESQRFISSSEVYWGQGTQVTVSS | low polyreactivity
43 | QVQLVESGGGLVQAGGSLRLSCAASGFIFDSYAMGWYRQAPGKERELVAAISWSGGRTYYADSVKGRFTISRDNAKNTVYLQMNSLKPEDTAVYYCNVRTKLSTSYDYWGQGTQVTVSS | high polyreactivity
